This note sets out measurements from patent publication US20140056890A1 (ONCEMED PHARMACEUTICALS, published 2014).

This assay concerns the target T1, pYAP (human, UniProt P46937, phosphorylated; site not stated in Example 13 (detected with phospho-YAP1 antibody #4911, Cell Signaling Technology; the anti-pYAP antibody of Examples 5 and 7 is to Ser127)).
T1 construct: full length, endogenous; also called phospho-YAP; phospho-YAP1
The experiment in a line: co-immunoprecipitation: anti-FLAG IP from lysate of transiently transfected HEK-293T cells, Western blot with anti-phospho-YAP1. On the procedure:
To validate these protein complexes, immunoprecipitates (see method described above) were prepared from HEK-293T cells transiently transfected with FLAG-tagged full-length CADM1, CADM3, PVR, PVRL1, and PVRL3, with CADM3-CD4TM-GFP and LGR5-CD4TM-GFP constructs as internal negative controls. Total cell lysates and the immunoprecipitate eluates were run on 4-12% Tris-Glycine Midi Gels (Life Technologies/Invitrogen, Grand Island, N.Y.) and transferred by iBlot onto PVDF membranes (Life Technologies/Invitrogen).

T1 sequence (P46937 whole entry): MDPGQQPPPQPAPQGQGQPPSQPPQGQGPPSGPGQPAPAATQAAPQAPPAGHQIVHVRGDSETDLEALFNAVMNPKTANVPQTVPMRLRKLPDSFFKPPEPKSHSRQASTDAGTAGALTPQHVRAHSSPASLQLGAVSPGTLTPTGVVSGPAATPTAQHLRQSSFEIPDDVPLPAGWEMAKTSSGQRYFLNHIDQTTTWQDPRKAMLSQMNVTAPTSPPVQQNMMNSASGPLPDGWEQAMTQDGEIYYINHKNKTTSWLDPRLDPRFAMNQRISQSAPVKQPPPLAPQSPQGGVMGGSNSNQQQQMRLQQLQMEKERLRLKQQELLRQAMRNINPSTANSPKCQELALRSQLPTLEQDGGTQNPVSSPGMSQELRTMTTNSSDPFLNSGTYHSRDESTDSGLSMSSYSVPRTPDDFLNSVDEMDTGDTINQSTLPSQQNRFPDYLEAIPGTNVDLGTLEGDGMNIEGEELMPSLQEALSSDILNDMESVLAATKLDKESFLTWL

B1: FLAG-tagged full-length PVR (receptor)
chain: WPPPGTGDVVVQAPTQVPGFLGDSVTLPCYLQVPNMEVTHVSQLTWARHGESGSMAVFHQTQGPSYSESKRLEFVAARLGAELRNASLRMFGLRVEDEGNYTCLFVTFPQGSRSVDIWLRVLAKPQNTAEVQKVQLTGEPVPMARCVSTGGRPPAQITWHSDLGGMPNTSQVPGFLSGTVTVTSLWILVPSSQVDGKNVTCKVEHESFEKPQLLTVNLTVYYPPEVSISGYDNNWYLGQNEATLTCDARSNPEPTGYNWSTTMGPLPPFAVAQGAQLLIRPVDKPINTTLICNVTNALGARQAELTVQVKEGPPSEHSGMSRNAIIFLVLGILVFLILLGIGIYFYWSKCSREVLWHCHLCPSSTEHASASANGHVSYSAVSRENSSSQDPQTEGTR
notes: Bait, transiently expressed in HEK-293T cells and immunoprecipitated from lysates with anti-FLAG agarose; also called Poliovirus receptor; NECL-5
As to B1, the binding result is listed as “no binding”.
